Usually Kd stands for the concentration at which binding is half-saturated. A higher Kd goes with weaker binding.

Here are results for 1 molecule from paper PMC5341616 (Biochemistry and Biophysics Reports, 2017).

The target of assay [1] is PLIC-2 UBL domain UBLN2 1-107 (human, UniProt Q9UHD9 1-107). The assay is described as follows: NMR titration.
The target in assay [2] is Ubiquitin (UniProt P0CG48 1-76). The assay is described as follows: NMR titration.

Chain of PLIC-2 UBL domain UBLN2 1-107 (Q9UHD9 1-107): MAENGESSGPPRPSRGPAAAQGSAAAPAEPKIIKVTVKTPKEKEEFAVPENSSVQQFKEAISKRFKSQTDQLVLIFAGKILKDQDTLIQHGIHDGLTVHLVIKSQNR

B1: PLIC-2 UBA domain UBLN2 578-624 (domain or fragment, human, UniProt Q9UHD9 578-624, looked up)
chain: PEVRFQQQLEQLNAMGFLNREANLQALIATGGDINAAIERLLGSQPS
With B1, the Kd was found to be 175 ± 25 µM in assay [1] and 8.1 ± 1.5 µM in assay [2].
